Data published in publication doi:10.1101/2020.11.20.391094.

Tests used:
[1] = target: His-SctV-C, isolated C-terminal cytoplasmic domain of EPEC SctV (enteropathogenic E. coli (EPEC)); experiment: native MS
[2] = target: His-SctV-C, isolated C-terminal cytoplasmic domain of EPEC SctV (enteropathogenic E. coli (EPEC)); experiment: SEC-MALS
[3] = target: His-SctV-C, isolated C-terminal cytoplasmic domain of EPEC SctV (enteropathogenic E. coli (EPEC)); experiment: native gel or EMSA
[4] = target: His-SctV, full length, synthesized in C41; also reconstituted in peptidiscs (His-SctV9-PR) (enteropathogenic E. coli (EPEC)); experiment: SEC-MALS
[5] = target: His-SctV, full length, synthesized in C41; also reconstituted in peptidiscs (His-SctV9-PR) (enteropathogenic E. coli (EPEC)); experiment: native gel or EMSA
[6] = target: SctV, full length, untagged, plasmid-borne in E. coli C41 (enteropathogenic E. coli (EPEC)); experiment: native gel or EMSA

Q: With “His-SctV-C, isolated C-terminal cytoplasmic domain of EPEC SctV (domain or fragment)” as the substance, how does the stoichiometry N [1] read?
A: The stoichiometry N was 9.

Q: What about the stoichiometry N [2] of the same substance?
A: The stoichiometry N was 9.

Q: And the stoichiometry N [3]?
A: The stoichiometry N was 9.

Q: How did the stoichiometry N [4] turn out when “His-SctV, full length, synthesized in C41; also reconstituted in peptidiscs (His-SctV9-PR) (natural protein)” was run?
A: The stoichiometry N was 9.

Q: And the stoichiometry N [5]?
A: Its stoichiometry N is 9.

Q: With “SctV, full length, untagged, plasmid-borne in E. coli C41 (natural protein)” as the substance, how does the stoichiometry N [6] read?
A: Its stoichiometry N is 9.
